Common to all, as to assay: flow cytometry on cells; 5 × 10^6 CHO745 cells expressing the receptor or chimera incubated with 10 μg of Alexa fluorophore conjugated eE2 in 600 μL PBS at room temperature for 2 h, washed three times with PBS; read-out MFI of Alexa-647; one representative experiment of three
In assay [1] the target is hCD81 LEL-ceTSP9 backbone chimera (Caenorhabditis elegans | human) (UniProt P60033).
Assay [2] addresses scavenger receptor type B class I (SR-BI) (UniProt Q8WTV0).
The target of assay [3] is hCD81 LEL-hCD9 backbone chimera (human) (UniProt P60033).

UniProt Q8WTV0, sequence (Q8WTV0 whole entry): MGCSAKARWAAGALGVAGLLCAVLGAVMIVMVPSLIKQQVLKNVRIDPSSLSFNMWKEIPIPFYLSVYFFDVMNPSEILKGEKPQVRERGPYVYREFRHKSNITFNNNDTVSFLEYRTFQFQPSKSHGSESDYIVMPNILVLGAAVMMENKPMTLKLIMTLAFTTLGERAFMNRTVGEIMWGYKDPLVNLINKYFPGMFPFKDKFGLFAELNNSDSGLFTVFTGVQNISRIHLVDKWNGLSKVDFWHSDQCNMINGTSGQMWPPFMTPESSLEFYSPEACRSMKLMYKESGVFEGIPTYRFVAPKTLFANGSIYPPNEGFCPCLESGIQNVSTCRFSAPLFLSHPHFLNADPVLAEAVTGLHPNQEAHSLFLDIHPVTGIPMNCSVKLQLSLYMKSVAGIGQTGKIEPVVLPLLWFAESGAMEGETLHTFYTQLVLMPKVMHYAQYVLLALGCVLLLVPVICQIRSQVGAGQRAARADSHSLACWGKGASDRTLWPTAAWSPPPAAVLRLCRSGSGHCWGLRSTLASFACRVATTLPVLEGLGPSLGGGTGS

On to “HCV E2 ectodomain (eE2) from genotype 2a (strain J6) (from UniProt P26660 384-729) (domain or fragment)”, for which the results for the MFI in assay [1] and in assay [2] were 15000 and 65000, respectively.

In the case of ΔHVR1 J6 eE2 (domain or fragment), the fold change of binding against wildtype J6 eE2 in assay [3] was determined as 3 fold.

“HCV E2 ectodomain (eE2) from genotype 1a (strain H77) (from UniProt P27958 384-725) (domain or fragment)”: the MFI in assay [1] turned out to be 20000; in assay [2], 22000.

Values taken from PMC5923501.
